Experiment [1] has as its target human chemokine receptor CX3CR1 (human) (UniProt P49238). As to the kind of experiment: cell-based or functional assay.
The target in experiment [2] is T1, recombinant RSV G[161-197] (respiratory syncytial virus (RSV), UniProt P03423 161-197).
T1 chain: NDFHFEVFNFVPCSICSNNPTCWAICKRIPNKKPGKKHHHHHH
In words: cell-based or functional assay.

human chemokine receptor CX3CR1 (human), sequence (P49238 whole entry): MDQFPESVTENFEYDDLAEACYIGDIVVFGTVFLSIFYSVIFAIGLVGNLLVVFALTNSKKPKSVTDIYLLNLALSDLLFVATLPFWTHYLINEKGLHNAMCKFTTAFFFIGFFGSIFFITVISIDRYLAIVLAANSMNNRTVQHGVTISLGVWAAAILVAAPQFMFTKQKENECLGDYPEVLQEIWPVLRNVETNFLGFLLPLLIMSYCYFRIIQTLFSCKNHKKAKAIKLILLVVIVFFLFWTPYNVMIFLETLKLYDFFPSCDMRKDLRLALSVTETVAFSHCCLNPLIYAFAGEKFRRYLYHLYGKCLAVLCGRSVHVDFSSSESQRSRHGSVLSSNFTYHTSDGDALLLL

Consider “RSV G ectodomain (G[ecto]) (from UniProt P03423 64-298)”, for which the chemotactic index (fold-increase in THP-1 cell migration vs serum-free media) (fold (chemotactic index)) in experiment [1] was 3.9.

On to “recombinant RSV G[161-197] (from UniProt P03423 161-197) (peptide)”, for which, in experiment [1], the chemotactic index (fold-increase in THP-1 cell migration vs serum-free media) (fold (chemotactic index)) came to 4.2.

B1: mAb 3D3 (antibody, V domains shown)
VH: EEQLVESGGGLVQPGRSLRLSCVGSGLRFEEHAMHWVRQAPGRGLEWVSGISWNSGSVGYADSVKGRFTTSRDNAKDILFLEMNTLRSEDTALYFCAIMVATTKNDFHYYKDVWGKGTTVTVSS
VL: QIVLTQSPATLSLSPGERATLSCKASQSVSNHLAWYQQKPGQAPRLLIYETSNRATGIPPRFSGSGSGTDFTLTISSLEPEDFAVYYCQQRNNWYTFGQGTKLEIK
Consider B1, for which the “chemotactic index of 5 nM RSV G[161-197] pre-incubated with 25 nM mAb” value in experiment [2] is 1.5 fold (chemotactic index).

B2: mAb 2D10 (antibody, V domains shown)
VH: QVQLVQSGPEVKKPGASVRLSCKASGYVFTNYGVSWVRQAPGQGLEWMGWSSPYNGNTYYAQKLKARVTMTTDTSTNTAYMELRSLRSDDTAVYYCGRDMLGVVQAVAGPFDSWGQGTLVTVSS
VL: DTPMTQSPSSVSASVGDRVTISCRASQGISNSLAWYQQKLGKAPQLLIYAASSLQSGVPSRFSGSGSGTDFTLTISSLQPEDFATYYCQQTNTFPFTFGPGTKVEVRR
Take B2: the “chemotactic index of 5 nM RSV G[161-197] pre-incubated with 25 nM mAb” value in experiment [2] is 1 fold (chemotactic index).

Values taken from patent publication US20210268096A1 (TRELLIS BIOSCIENCE, published 2021).
